Data: patent US20160038607A1 (UNIVERSITY OF NOTRE DAME DU LAC, published 2016)
Bridges are numbered along the chain shown (N, C = ends). Where no end group is shown, it is not given here.

Legend:
[1] = biological target: T1, Human Epidermal Growth Factor Receptor 2 (HER2) (human, UniProt P04626 23-1255); assay: cell-based or functional assay
[2] = biological target: T1, Human Epidermal Growth Factor Receptor …; assay: flow cytometry, fluorescein labeled peptide on SK-BR-3 cells, on ice
Method: (§1) For HER2 expression assays, cells were incubated with primary antibody in binding buffer on ice for 1 hour and washed twice. Fluorescein conjugated secondary antibody was added for 1 hour on ice, samples were washed, and analyzed on Guava easyCyte 8HT flow cytometer (Millipore). Isotype matched antibodies were used as negative controls. For cell-based peptide binding assays, cells were incubated with increasing concentrations of fluorescein-conjugated peptides for 2 hours on ice. Samples were washed twice and analyzed on Guava easyCyte 8HT flow cytometer.

[3] = biological target: T1, Human Epidermal Growth Factor Receptor …; assay: flow cytometry, fluorescein labeled peptide on BT-474 cells, on ice
Method: as §1

Row | Binder | cellular uptake of liposomes at 2% peptide density, fold enhancement [1] [fold] | cellular uptake of liposomes by BT-474 and SK-BR-3 cells, 3 h (flow cytometry), fold greater than control [1] [fold] | cellular uptake of liposomes by BT-474 cells at 24 h, fold greater than control liposomes [1] [fold] | cellular uptake of liposomes by SK-BR-3 cells at 24 h, fold greater than control liposomes [1] [fold] | Kd [2] [nM] | Kd [3] [nM]
1 | YCDGFYACYMDV (disulfide 2-8 (inferred); not fully specified (N-terminus); also: displayed on PEG350-coated liposomes) [HER2-pep-EG12-PA conjugate on PEG350 coated liposomes (95:10:3:2 HSPC:CHOL:PEG350:HER2-pep)] | ~10 | ~9 | ~5 | ~4 | – | –
2 | YCDGFYACYMDV (disulfide 2-8 (inferred); also: fluorescein label, position not given here) [HER2-antagonist peptide (HER2-pep), fluorescein labeled] | – | – | – | – | 1750 | 1970
